Consider 1 molecule from patent publication US20140363495A1.

In test [1] the target is HLA-A2 molecules on T2A2 cells (human). The test can be described thus: flow cytometry, upregulation of HLA-A2 on T2A2 cells, peptide 12.5 µg/mL, negative control. Conditions: remark: other sources report otherwise. A general note: Flow cytometry measures light scatter and fluorescence of single cells or particles in a stream.
Test [2] shares this target. The test can be described thus: flow cytometry, upregulation of HLA-A2 on T2A2 cells, peptide 25 µg/mL, negative control. Conditions: remark: other sources report otherwise.

In test [1], HLFGYSWYK [CAP-7] yielded a T2 Binding (MFI) of 109 MFI. The T2A2 Binding (MFI) in test [2] came to 83.8 MFI.
